The record followed here is patent US20090192084A1 (CALIFORNIA INSTITUTE OF TECHNOLOGY, published 2009).

To fix the notation:
T1: Ubiquitin conjugation factor E4 B, UBE4B (Ufd2ortholog) (human, UniProt O95155 1-1302)
T1 sequence (looked up): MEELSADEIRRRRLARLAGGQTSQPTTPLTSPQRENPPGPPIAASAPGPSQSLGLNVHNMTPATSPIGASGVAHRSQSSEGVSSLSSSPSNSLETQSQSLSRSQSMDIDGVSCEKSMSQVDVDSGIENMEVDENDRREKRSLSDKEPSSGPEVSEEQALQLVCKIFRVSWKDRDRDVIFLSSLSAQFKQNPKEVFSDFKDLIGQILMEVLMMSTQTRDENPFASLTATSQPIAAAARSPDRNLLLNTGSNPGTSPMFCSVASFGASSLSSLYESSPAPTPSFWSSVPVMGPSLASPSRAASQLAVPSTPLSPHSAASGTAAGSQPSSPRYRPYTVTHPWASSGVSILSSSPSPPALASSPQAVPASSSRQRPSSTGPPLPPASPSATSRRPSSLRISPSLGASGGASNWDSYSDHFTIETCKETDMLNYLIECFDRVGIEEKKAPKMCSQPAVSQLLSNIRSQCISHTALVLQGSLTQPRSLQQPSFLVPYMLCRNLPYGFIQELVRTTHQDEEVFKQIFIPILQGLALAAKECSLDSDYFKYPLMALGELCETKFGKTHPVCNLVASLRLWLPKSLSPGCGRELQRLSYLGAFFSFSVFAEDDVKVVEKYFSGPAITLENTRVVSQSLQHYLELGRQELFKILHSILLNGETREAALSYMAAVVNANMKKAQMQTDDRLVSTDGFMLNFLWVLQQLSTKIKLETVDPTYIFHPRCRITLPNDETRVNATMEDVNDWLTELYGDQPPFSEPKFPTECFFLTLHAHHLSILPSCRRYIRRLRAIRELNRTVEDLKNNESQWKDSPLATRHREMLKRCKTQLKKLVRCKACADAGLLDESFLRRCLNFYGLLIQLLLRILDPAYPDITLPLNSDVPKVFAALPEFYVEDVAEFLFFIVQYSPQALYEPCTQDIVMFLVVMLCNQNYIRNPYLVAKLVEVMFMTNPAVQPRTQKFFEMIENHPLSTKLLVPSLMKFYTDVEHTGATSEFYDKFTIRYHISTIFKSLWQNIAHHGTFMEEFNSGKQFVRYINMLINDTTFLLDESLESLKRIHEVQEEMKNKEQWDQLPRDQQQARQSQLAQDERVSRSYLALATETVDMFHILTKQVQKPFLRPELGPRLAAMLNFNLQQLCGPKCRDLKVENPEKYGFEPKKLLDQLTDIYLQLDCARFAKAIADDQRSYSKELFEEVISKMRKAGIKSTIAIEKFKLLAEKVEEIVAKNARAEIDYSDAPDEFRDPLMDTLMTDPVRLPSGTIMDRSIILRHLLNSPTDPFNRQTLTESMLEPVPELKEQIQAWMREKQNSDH

B1: Flag-UBXD8 (other, UniProt Q96CS3 1-445, looked up)
chain: MAAPEERDLTQEQTEKLLQFQDLTGIESMDQCRHTLEQHNWNIEAAVQDRLNEQEGVPSVFNPPPSRPLQVNTADHRIYSYVVSRPQPRGLLGWGYYLIMLPFRFTYYTILDIFRFALRFIRPDPRSRVTDPVGDIVSFMHSFEEKYGRAHPVFYQGTYSQALNDAKRELRFLLVYLHGDDHQDSDEFCRNTLCAPEVISLINTRMLFWACSTNKPEGYRVSQALRENTYPFLAMIMLKDRRMTVVGRLEGLIQPDDLINQLTFIMDANQTYLVSERLEREERNQTQVLRQQQDEAYLASLRADQEKERKKREERERKRRKEEEVQQQKLAEERRRQNLQEEKERKLECLPPEPSPDDPESVKIIFKLPNDSRVERRFHFSQSLTVIHDFLFSLKESPEKFQIEANFPRRVLPCIPSEEWPNPPTLQEAGLSHTEVLFVQDLTDE
notes: also called RDB 2143; not shown: N-terminal Flag tag
B2: Flag-FAF1 (other, UniProt Q9UNN5 1-650, looked up)
chain: MASNMDREMILADFQACTGIENIDEAITLLEQNNWDLVAAINGVIPQENGILQSEYGGETIPGPAFNPASHPASAPTSSSSSAFRPVMPSRQIVERQPRMLDFRVEYRDRNVDVVLEDTCTVGEIKQILENELQIPVSKMLLKGWKTGDVEDSTVLKSLHLPKNNSLYVLTPDLPPPSSSSHAGALQESLNQNFMLIITHREVQREYNLNFSGSSTIQEVKRNVYDLTSIPVRHQLWEGWPTSATDDSMCLAESGLSYPCHRLTVGRRSSPAQTREQSEEQITDVHMVSDSDGDDFEDATEFGVDDGEVFGMASSALRKSPMMPENAENEGDALLQFTAEFSSRYGDCHPVFFIGSLEAAFQEAFYVKARDRKLLAIYLHHDESVLTNVFCSQMLCAESIVSYLSQNFITWAWDLTKDSNRARFLTMCNRHFGSVVAQTIRTQKTDQFPLFLIIMGKRSSNEVLNVIQGNTTVDELMMRLMAAMEIFTAQQQEDIKDEDEREARENVKREQDEAYRLSLEADRAKREAHEREMAEQFRLEQIRKEQEEEREAIRLSLEQALPPEPKEENAEPVSKLRIRTPSGEFLERRFLASNKLQIVFDFVASKGFPWDEYKLLSTFPRRDVTQLDPNKSLLEVKLFPQETLFLEAKE
notes: also called RDB 2151; not shown: N-terminal Flag tag
B3: Flag-SAKS1 (other, UniProt Q04323 1-297, looked up)
chain: MAELTALESLIEMGFPRGRAEKALALTGNQGIEAAMDWLMEHEDDPDVDEPLETPLGHILGREPTSSEQGGLEGSGSAAGEGKPALSEEERQEQTKRMLELVAQKQREREEREEREALERERQRRRQGQELSAARQRLQEDEMRRAAEERRREKAEELAARQRVREKIERDKAERAKKYGGSVGSQPPPVAPEPGPVPSSPSQEPPTKREYDQCRIQVRLPDGTSLTQTFRAREQLAAVRLYVELHRGEELGGGQDPVQLLSGFPRRAFSEADMERPLQELGLVPSAVLIVAKKCPS
notes: also called RDB 2150; not shown: N-terminal Flag tag
B4: Flag-UBXD6 (other, UniProt O00124 1-270, looked up)
chain: MASRGVVGIFFLSAVPLVCLELRRGIPDIGIKDFLLLCGRILLLLALLTLIISVTTSWLNSFKSPQVYLKEEEEKNEKRQKLVRKKQQEAQGEKASRYIENVLKPHQEMKLRKLEERFYQMTGEAWKLSSGHKLGGDEGTSQTSFETSNREAAKSQNLPKPLTEFPSPAEQPTCKEIPDLPEEPSQTAEEVVTVALRCPSGNVLRRRFLKSYSSQVLFDWMTRIGYHISLYSLSTSFPRRPLAVEGGQSLEDIGITVDTVLILEEKEQTN
notes: also called Rep-8/UBXD6; RDB 2145; not shown: N-terminal Flag tag
B5: Flag-ASPL (other, UniProt Q9BZE9 1-553, looked up)
chain: MAAPAGGGGSAVSVLAPNGRRHTVKVTPSTVLLQVLEDTCRRQDFNPCEYDLKFQRSVLDLSLQWRFANLPNNAKLEMVPASRSREGPENMVRIALQLDDGSRLQDSFCSGQTLWELLSHFPQIRECLQHPGGATPVCVYTRDEVTGEAALRGTTLQSLGLTGGSATIRFVMKCYDPVGKTPGSLGSSASAGQAAASAPLPLESGELSRGDLSRPEDADTSGPCCEHTQEKQSTRAPAAAPFVPFSGGGQRLGGPPGPTRPLTSSSAKLPKSLSSPGGPSKPKKSKSGQDPQQEQEQERERDPQQEQERERPVDREPVDREPVVCHPDLEERLQAWPAELPDEFFELTVDDVRRRLAQLKSERKRLEEAPLVTKAFREAQIKEKLERYPKVALRVLFPDRYVLQGFFRPSETVGDLRDFVRSHLGNPELSFYLFITPPKTVLDDHTQTLFQANLFPAALVHLGAEEPAGVYLEPGLLEHAISPSAADVLVARYMSRAAGSPSPLPAPDPAPKSEPAAEEGALVPPEPIPGTAQPVKRSLGKVPKWLKLPASKR
notes: also called RDB 2144; not shown: N-terminal Flag tag
B6: Flag-UBXD1 (other, UniProt Q9BZV1 1-441, looked up)
chain: MKKFFQEFKADIKFKSAGPGQKLKESVGEKAHKEKPNQPAPRPPRQGPTNEAQMAAAAALARLEQKQSRAWGPTSQDTIRNQVRKELQAEATVSGSPEAPGTNVVSEPREEGSAHLAVPGVYFTCPLTGATLRKDQRDACIKEAILLHFSTDPVAASIMKIYTFNKDQDRVKLGVDTIAKYLDNIHLHPEEEKYRKIKLQNKVFQERINCLEGTHEFFEAIGFQKVLLPAQDQEDPEEFYVLSETTLAQPQSLERHKEQLLAAEPVRAKLDRQRRVFQPSPLASQFELPGDFFNLTAEEIKREQRLRSEAVERLSVLRTKAMREKEEQRGLRKYNYTLLRVRLPDGCLLQGTFYARERLGAVYGFVREALQSDWLPFELLASGGQKLSEDENLALNECGLVPSALLTFSWDMAVLEDIKAAGAEPDSILKPELLSAIEKLL
notes: also called RDB 2152; not shown: N-terminal Flag tag
B7: Flag-UBXD3 (other, UniProt Q96LJ8 1-280, looked up)
chain: MATEAPVNIAPPECSTVVSTAVDSLIWQPNSLNMHMIRPKSAKGRTRPSLQKSQGVEVCAHHIPSPPPAIPYELPSSQKPGACAPKSPNQGASDEIPELQQQVPTGASSSLNKYPVLPSINRKNLEEEAVETVAKKASSLQLSSIRALYQDETGTMKTSEEDSRARACAVERKFIVRTKKQGSSRAGNLEEPSDQEPRLLLAVRSPTGQRFVRHFRPTDDLQTIVAVAEQKNKTSYRHCSIETMEVPRRRFSDLTKSLQECRIPHKSVLGISLEDGEGWP
notes: also called RDB 2149; not shown: N-terminal Flag tag
B8: Flag-UBXD2 (other, UniProt Q92575 1-508, looked up)
chain: MLWFQGAIPAAIATAKRSGAVFVVFVAGDDEQSTQMAASWEDDKVTEASSNSFVAIKIDTKSEACLQFSQIYPVVCVPSSFFIGDSGIPLEVIAGSVSADELVTRIHKVRQMHLLKSETSVANGSQSESSVSTPSASFEPNNTCENSQSRNAELCEIPPTSDTKSDTATGGESAGHATSSQEPSGCSDQRPAEDLNIRVERLTKKLEERREEKRKEEEQREIKKEIERRKTGKEMLDYKRKQEEELTKRMLEERNREKAEDRAARERIKQQIALDRAERAARFAKTKEEVEAAKAAALLAKQAEMEVKRESYARERSTVARIQFRLPDGSSFTNQFPSDAPLEEARQFAAQTVGNTYGNFSLATMFPRREFTKEDYKKKLLDLELAPSASVVLLPAGRPTASIVHSSSGDIWTLLGTVLYPFLAIWRLISNFLFSNPPPTQTSVRVTSSEPPNPASSSKSEKREPVRKRVLEKRGDDFKKEGKIYRLRTQDDGEDENNTWNGNSTQQM
notes: also called RDB 2153; not shown: N-terminal Flag tag

One assay has as its target T1, Ubiquitin conjugation factor E4 B, …. Nature of the assay: co-IP, MudPIT MS.
In the case of B1, the binding result is “no binding”.
As to B2, the binding result is given as “no binding”.

The next assay addresses T2, endogenous p97 (human, UniProt P55072 2-806).
T2 construct: also called VCP
As to the kind of experiment: Flag co-IP, 293 cells, MudPIT MS. The method, then: For immunoprecipitation experiments, the cells were lysed in buffer A (50 mM HEPES/KOH, pH 7.5; 5 mM Mg(OAc)₂; 70 mM KOAc; 0.2% Triton X-100; 10% glycerol; 0.2 mM EDTA; protease inhibitors) and incubated with anti-Flag agarose beads (Sigma) or anti-Myc sepharose beads (Covance).
Mass spectrometrical sample analysis was performed as described previously (Graumann et al., 2004) using a high-pressure liquid chromatography pump (Agilent) in line to a LCQ DecaXP electrospray ion trap mass spectrometer (ThermoFinnigan). In brief, 2-4 mg of protein extract were incubated with anti-Flag or anti-Myc beads and the immunoprecipitated proteins were eluted with saturated urea. The eluates were then proteolitically digested using sequentially endoproteinase Lys-C and trypsin. The resulting peptide mixtures were pressure-loaded onto triphasic microcapillary columns and sample separation was achieved using a chromatography program consisting of six salt steps, each followed by an organic gradient. The eluting peptides were electrosprayed into the mass spectrometer and the column eluate was continuously analyzed. One full-range mass scan ([…]) was followed by three data-dependent tandem mass spectrometry (MS/MS) spectra. Sequence database matching was performed against the IPI human database (Kersey et al., 2004) version 3.15.1 using Sequest (Eng et al., 1994) and the results were filtered with DTASelect (Tabb et al., 2002), using the parameters indicated in Graumann et al. (2004).
Molecule B3 registered a sequence count of 68, a sequence coverage of 57.4% and a spectrum count of 663.
As to B4, the sequence count turned out to be 55, the sequence coverage was found to be 59.5% and the spectrum count was determined as 212.
Regarding B5, the sequence count is 154, the sequence coverage was determined as 78.5% and the spectrum count is 1440.
In turn, B6 came in with a sequence count of 159, a sequence coverage of 84.3% and a spectrum count of 1130.
Taken in the same sequence, the figures for B1 were 48, 57.6% and 3090.
Take B2: the sequence count amounted to 84, the sequence coverage was determined as 68.9% and the spectrum count was found to be 539.
The molecule B7 registered a sequence count of 57, a sequence coverage of 64.5% and a spectrum count of 254.
B8: the sequence count came to 27, the sequence coverage is 41.1% and the spectrum count worked out at 958.
